Experimental data as given in paper PMC3564914, “Transcriptome analysis of bitter acid biosynthesis and precursor pathways in hop (Humulus lupulus)” (BMC Plant Biology, 2013).

B1: HlBCAT1 (Humulus lupulus) (protein)
chain: SSTSLAKSSLKQSCELSCKSNTEPSNMDWDKLGFKLMPTDYVYSMKCSNEGNFEQGRLELHGNIELSPAAAVLNYGQGIFEGTKAYRKEDGSLLLFRPDQNGVRMRIGAERMCMPSPSVDQFVDAVKQTAIANRRWVPPSGKGSLYIRPLLMGTGAVLGVAPAPQYTFLAYASPVGNYFKEGLAPLRLYVEDEFDRASPGGTGFVKTIGNYSRCLAALSRAKNKGFSDVLFLDSVHKKYVEELSSCNIFIVQGNQISTPAANGTILSGVTRSSIIEIARDHGFKVEERKIAVDELMEAEEVFCTGTAVGVASVGSITYHNKRVEFKTGSQSVSQKFYSTLIGIQTGVVEDKKGWIVEID
notes: N-terminal vector His tag (pHIS8/GW), E. coli BL21(DE3) Rosetta2 pLysS, Talon purified
B2: HlBCAT2 (Humulus lupulus) (protein)
chain: NATLSDTYSETVELADIDWDNLGFGFLPTDYMYNMKCAQGESFSNGELQRFGNIELSPSAGVLNYGQGLFEGLKAYRKEDGNILLFRPEENALRMRLGAERMCMPSPTVDQFVDAVKATVLANKRWIPPVGKGSLYIRPLLMGSGAVLGLAPAPEYTFLIYVSPVGNYFKEGVAPIHLIVEDNLHRATPGGTGGVKTIGNYAAVLKAQSAAKEQGYSDVLYLDCVHKKYLEEVSSCNIFVVKGNLIFTPAIKGTILPGITRKSIIDVARTLGFQVEERLVHVDELLDADEVFCTGTAVVVSPVGSITYHGERVPYNEGGVGAVSQQLYSALTRLQMGFIKDNMNWTVELS
notes: as for B1

Experiments:
Assay in all cases: purified protein
Type in all cases: biochemical, Humulus lupulus
[1] = substrate: CC(C)C(=O)C(=O)O; conditions: anabolic direction, 2 mM glutamate, 50 μM PLP, 100 mM ammonium chloride, Tris HCl pH 8.5, 22°C
[2] = substrate: CC(C)CC(=O)C(=O)O; conditions: anabolic direction, 2 mM glutamate, 50 μM PLP, 100 mM ammonium chloride, Tris HCl pH 8.5, 22°C
[3] = substrate: CC(C)C[C@H](N)C(=O)O; conditions: catabolic direction, 2 mM 2-oxoglutarate, 50 μM PLP, Tris HCl pH 8.5, 22°C
[4] = substrate: CC(C)[C@H](N)C(=O)O; conditions: catabolic direction, 2 mM 2-oxoglutarate, 50 μM PLP, Tris HCl pH 8.5, 22°C
[5] = substrate: CC[C@H](C)C(=O)C(=O)O; conditions: anabolic direction, 2 mM glutamate, 50 μM PLP, 100 mM ammonium chloride, Tris HCl pH 8.5, 22°C
[6] = substrate: CC[C@H](C)[C@H](N)C(=O)O; conditions: catabolic direction, 2 mM 2-oxoglutarate, 50 μM PLP, Tris HCl pH 8.5, 22°C
[7] = substrate: N[C@@H](CCC(=O)O)C(=O)O; conditions: anabolic direction, 0.5 mM ketoisovalerate, 50 μM PLP, 100 mM ammonium chloride, Tris HCl pH 8.5, 22°C
[8] = substrate: O=C(O)CCC(=O)C(=O)O; conditions: catabolic direction, 2 mM leucine, 50 μM PLP, Tris HCl pH 8.5, 22°C

Protein | Km [1] [µM] | Vmax [1] [µmol/min/mg] | Km [2] [µM] | Vmax [2] [µmol/min/mg] | Km [3] [µM] | Vmax [3] [µmol/min/mg] | Km [4] [µM] | Vmax [4] [µmol/min/mg] | Km [5] [µM] | Vmax [5] [µmol/min/mg] | Km [6] [µM] | Vmax [6] [µmol/min/mg] | Km [7] [µM] | Vmax [7] [µmol/min/mg] | Km [8] [µM] | Vmax [8] [µmol/min/mg]
B1 | 99 ± 6.53 | 4.23 | 35 ± 3.27 | 4.5 | 40 ± 9.20 | 4.84 | 340 ± 90.94 | 12.6 | 99 ± 10.75 | 2.95 | 230 ± 26.94 | 19.4 | 720 ± 55.59 | 5.59 | 30 ± 5.39 | 4.5
B2 | 200 ± 11.72 | 96.4 | 120 ± 11.43 | 119 | 280 ± 69.56 | 43.4 | 130 ± 27.74 | 23.3 | 160 ± 11.63 | 84.7 | 250 ± 41.07 | 88.1 | 690 ± 88.51 | 136 | 210 ± 58.86 | 36.9
